Assay results: US20220363770A1 (Amgen, published 2022)
Residue numbers refer to the chain shown, from its start.

T1: human PAC1 receptor (human, UniProt P41586 24-468)
T1 sequence: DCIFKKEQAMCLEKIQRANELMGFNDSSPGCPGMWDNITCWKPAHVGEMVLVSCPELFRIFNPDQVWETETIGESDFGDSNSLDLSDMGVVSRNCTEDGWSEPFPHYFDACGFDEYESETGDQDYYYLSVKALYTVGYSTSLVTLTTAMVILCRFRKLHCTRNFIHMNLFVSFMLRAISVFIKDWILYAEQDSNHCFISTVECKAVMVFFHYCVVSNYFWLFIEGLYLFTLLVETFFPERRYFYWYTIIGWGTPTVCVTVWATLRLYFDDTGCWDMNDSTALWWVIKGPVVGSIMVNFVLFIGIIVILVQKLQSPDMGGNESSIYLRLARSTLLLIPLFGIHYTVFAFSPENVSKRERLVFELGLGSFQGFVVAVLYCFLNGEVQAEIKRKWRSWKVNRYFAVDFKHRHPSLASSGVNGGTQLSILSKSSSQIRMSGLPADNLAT

B1: iPS:454895 (bispecific antibody, human IgG1, kappa, lambda, N297G)
light 1: QSVLTQPPSVSAAPGQKVTISCSGSSSNIGNNYVSWYQQLPGTAPKLLIYDNNKRPSGIPDRFSGSKSGTSTTLGITGLQTGDEADYYCGTWDSRLSAVVFGGGTKLTVLGQPKAAPSVTLFPPSSEELQANKATLVCLISDFYPGAVTVAWKADSSPVKAGVETTTPSKQSNNKYAAKSYLSLTPEQWKSHRSYSCQVTHEGSTVEKTVAPTECS
heavy 1: QVQLVESGGGVVQPGRSLRLSCAASGFTFSSFGMHWVRQAPGKGLEWVAVISFDGSIKYSVDSVKGRFTISRDNSKNTLFLQMNSLRAEDTAVYYCARDRLNYYRSFGYYGYHYYGMAVWGQGTTVTVSSASTKGPSVFPLAPSSKSTSGGTAALGCLVKDYFPEPVTVSWNSGALTSGVHTFPAVLQSSGLYSLESVVTVPSSSLGTQTYICNVNHKPSNTKVDKKVEPKSCDKTHTCPPCPAPELLGGPSVFLFPPKPKDTLMISRTPEVTCVVVDVSHEDPEVKFNWYVDGVEVHNAKTKPCEEQYGSTYRCVSVLTVLHQDWLNGKEYKCKVSNKALPAPIEKTISKAKGQPREPQVYTLPPSRKKMTKNQVSLTCLVKGFYPSDIAVEWESNGQPENNYKTTPPVLKSDGSFFLYSKLTVDKSRWQQGNVFSCSVMHEALHNHYTQKSLSLSPGK
light 2: EIVLTQSPATLSLSPGERATLSCRASQSVGRSLHWYQQKPGQAPRLLIKYASQSLSGIPARFSGSGSGTDFTLTISSLEPEDFAVYYCHQSSRLPFTFGPGTKVDIKRTVAAPSVFIFPPSDEQLKSGTASVVCLLNNFYPREAKVQWKVDNALQSGNSQESVTEQDSKDSTYSLESTLTLSKADYEKHKVYACEVTHQGLSSPVTKSFNRGEC
heavy 2: not shown
B2: iPS:454913 (bispecific antibody, human IgG1, kappa, lambda, N297G)
light 1: B1 light 1
heavy 1: B1 heavy 1
light 2: B1 light 2 with Q27K, R31W
heavy 2: not shown
B3: iPS:454897 (bispecific antibody, human IgG1, kappa, lambda, N297G)
light 1: B1 light 1
heavy 1: B1 heavy 1
light 2: B1 light 2 with Q27K
heavy 2: not shown
B4: iPS:454907 (bispecific antibody, human IgG1, kappa, lambda, N297G)
light 1: B1 light 1
heavy 1: B1 heavy 1
light 2: B1 light 2 with Q27K, R31W
heavy 2: not shown
B5: iPS:454915 (bispecific antibody, human IgG1, kappa, lambda, N297G)
light 1: B1 light 1
heavy 1: B1 heavy 1
light 2: B1 light 2 with Q27K, R31W
heavy 2: not shown
B6: iPS:454899 (bispecific antibody, human IgG1, kappa, lambda, N297G)
light 1: B1 light 1
heavy 1: B1 heavy 1
light 2: B1 light 2 with Q27K
heavy 2: not shown
B7: iPS:454917 (bispecific antibody, human IgG1, kappa, lambda, N297G)
light 1: B1 light 1
heavy 1: B1 heavy 1
light 2: B1 light 2 with Q27K, R31W
heavy 2: not shown
B8: iPS:454911 (bispecific antibody, human IgG1, kappa, lambda, N297G)
light 1: B1 light 1
heavy 1: B1 heavy 1
light 2: B1 light 2 with Q27K, R31W
heavy 2: not shown
B9: iPS:571015 (5603) (bispecific antibody, human IgG1, kappa, lambda, N297G)
light 1: B1 light 1 with S26Y, N31R, N32Y, Y33S, T72A
heavy 1: B1 heavy 1 with R105E, F107S, G111H, H113K, K369E
light 2: B1 light 2 with Q27K
heavy 2: not shown
B10: iPS:454905 (bispecific antibody, human IgG1, kappa, lambda, N297G)
light 1: B1 light 1
heavy 1: B1 heavy 1
light 2: B1 light 2 with Q27K, R31W
heavy 2: not shown
B11: iPS:454909 (bispecific antibody, human IgG1, kappa, lambda, N297G)
light 1: B1 light 1
heavy 1: B1 heavy 1
light 2: B1 light 2 with Q27K, R31W
heavy 2: not shown
B12: iPS:454901 (bispecific antibody, human IgG1, kappa, lambda, N297G)
light 1: B1 light 1
heavy 1: B1 heavy 1
light 2: B1 light 2 with Q27K, S28A, R31W
heavy 2: not shown
B13: iPS:454919 (bispecific antibody, human IgG1, kappa, lambda, N297G)
light 1: B1 light 1
heavy 1: B1 heavy 1
light 2: B1 light 2 with Q27K, R31Y
heavy 2: not shown
B14: iPS:571009 (5602) (bispecific antibody, human IgG1, kappa, lambda, N297G)
light 1: B1 light 1 with S26Y, N31R, N32Y, Y33S, T72A
heavy 1: B1 heavy 1 with R105E, F107S, G111H, H113K, K370E
light 2: B1 light 2 with Q27K
heavy 2: not shown
B15: iPS:454903 (bispecific antibody, human IgG1, kappa, lambda, N297G)
light 1: B1 light 1
heavy 1: B1 heavy 1
light 2: B1 light 2 with Q27K, R31W
heavy 2: not shown

Biological target: human CGRP receptor (human, UniProt Q16602 23-461; O60894 27-148)
Sequence (Q16602 23-461 limits assumed, chain 1 of 2): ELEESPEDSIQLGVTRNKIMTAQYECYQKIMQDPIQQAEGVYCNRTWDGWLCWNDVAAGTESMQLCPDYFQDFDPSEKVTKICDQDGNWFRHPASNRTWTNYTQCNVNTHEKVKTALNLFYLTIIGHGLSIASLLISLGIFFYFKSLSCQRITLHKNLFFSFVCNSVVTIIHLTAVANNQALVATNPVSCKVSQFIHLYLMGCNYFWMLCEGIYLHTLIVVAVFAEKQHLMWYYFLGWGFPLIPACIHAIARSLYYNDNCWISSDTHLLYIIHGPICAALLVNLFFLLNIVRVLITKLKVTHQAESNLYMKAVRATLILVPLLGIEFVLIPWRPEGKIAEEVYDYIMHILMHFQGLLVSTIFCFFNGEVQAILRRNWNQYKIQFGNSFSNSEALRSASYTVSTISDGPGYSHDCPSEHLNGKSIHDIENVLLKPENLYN
Sequence (O60894 27-148 limits assumed, chain 2 of 2): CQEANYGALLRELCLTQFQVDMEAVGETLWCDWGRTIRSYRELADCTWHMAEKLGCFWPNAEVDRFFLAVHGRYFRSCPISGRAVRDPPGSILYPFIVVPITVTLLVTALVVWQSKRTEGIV
Assay: cell-based or functional assay

Compared with B1, B2 is lower in “Fold-improvement over 4E4 Ab” value: 0.4 fold for the first, 0.3 fold for the second.

Going from B3 to B4, the “Fold-improvement over 4E4 Ab” value falls from 0.5 fold to 0.4 fold.

First: B5
Second: B6
The “Fold-improvement over 4E4 Ab” value of the first is lower: 0.4 fold for the first, 0.6 fold for the second.

First: B7
Second: B8
The “Fold-improvement over 4E4 Ab” value of the first is higher: 0.4 fold for the first, 0.3 fold for the second.

Going from B9 to B10, the “Fold-improvement over 4E4 Ab” value falls from 1.2 fold to 0.5 fold.

Going from B11 to B12, the “Fold-improvement over 4E4 Ab” value rises from 0.4 fold to 0.6 fold.

Compared with B13, B14 is higher in “Fold-improvement over 4E4 Ab” value: 0.4 fold for the first, 1.3 fold for the second.

B15 was tested, and the “Fold-improvement over 4E4 Ab” value was 0.5 fold.

B1 and B2 are within 1.5-fold of each other in “IC50” value: 1.41 nM for the first, 2.11 nM for the second.

B3 and B4 are within 1.5-fold of each other in “IC50” value: 1.14 nM for the first, 1.63 nM for the second.

B5 and B6 are within 1.5-fold of each other in “IC50” value: 1.25 nM for the first, 1.04 nM for the second.

B7 and B8 are within 1.5-fold of each other in “IC50” value: 1.34 nM for the first, 1.98 nM for the second.

First: B9
Second: B10
The “IC50” value of the first is 2.4-fold lower: 0.47 nM for the first, 1.13 nM for the second.

B11 and B12 are within 1.5-fold of each other in “IC50” value: 1.49 nM for the first, 1.01 nM for the second.

Compared with B13, B14 is 3.3-fold lower in “IC50” value: 1.4 nM for the first, 0.43 nM for the second.

B15 was tested, and the “IC50” value was 1.16 nM.

Biological target: T1, human PAC1 receptor
Assay: cell-based or functional assay

First: B1
Second: B2
The “Fold-improvement over 29G4v22 Ab” value of the first is higher: 9.4 fold for the first, 5.2 fold for the second.

Compared with B3, B4 is lower in “Fold-improvement over 29G4v22 Ab” value: 6.2 fold for the first, 5.4 fold for the second.

Compared with B5, B6 is lower in “Fold-improvement over 29G4v22 Ab” value: 10.5 fold for the first, 5.2 fold for the second.

Going from B7 to B8, the “Fold-improvement over 29G4v22 Ab” value falls from 11.4 fold to 9.1 fold.

First: B9
Second: B10
The “Fold-improvement over 29G4v22 Ab” value of the first is lower: 5.5 fold for the first, 9.2 fold for the second.

Compared with B11, B12 is higher in “Fold-improvement over 29G4v22 Ab” value: 9.5 fold for the first, 10.9 fold for the second.

First: B13
Second: B14
The “Fold-improvement over 29G4v22 Ab” value of the first is higher: 9.8 fold for the first, 7.2 fold for the second.

For B15, the “Fold-improvement over 29G4v22 Ab” value was 10.2 fold.

First: B1
Second: B2
The “IC50” value of the first is 1.9-fold lower: 0.69 nM for the first, 1.33 nM for the second.

B3 and B4 are within 1.5-fold of each other in “IC50” value: 1.04 nM for the first, 1.37 nM for the second.

First: B5
Second: B6
The “IC50” value of the first is 2.1-fold lower: 0.66 nM for the first, 1.41 nM for the second.

B7 and B8 are within 1.5-fold of each other in “IC50” value: 0.61 nM for the first, 0.81 nM for the second.

B9 and B10 are within 1.5-fold of each other in “IC50” value: 0.74 nM for the first, 0.79 nM for the second.

B11 and B12 are within 1.5-fold of each other in “IC50” value: 0.77 nM for the first, 0.67 nM for the second.

B13 and B14 are within 1.5-fold of each other in “IC50” value: 0.7 nM for the first, 0.57 nM for the second.

B15 was tested, and the “IC50” value was 0.72 nM.
